{"source": "paper PMC2907061", "about": "(Traffic (Copenhagen, Denmark), 2009)", "binders": {"B1": {"name": "GST-Htz1_(1–53) (domain or fragment, yeast, UniProt Q12692 1-53, looked up)", "chain": "MSGKAHGGKGKSGAKDSGSLRSQSSSARAGLQFPVGRIKRYLKRHATGRTRVG"}, "B2": {"name": "untagged recombinant Nap1 (natural protein, yeast, UniProt P25293 1-417, looked up)", "chain": "MSDPIRTKPKSSMQIDNAPTPHNTPASVLNPSYLKNGNPVRAQAQEQDDKIGTINEEDILANQPLLLQSIQDRLGSLVGQDSGYVGGLPKNVKEKLLSLKTLQSELFEVEKEFQVEMFELENKFLQKYKPIWEQRSRIISGQEQPKPEQIAKGQEIVESLNETELLVDEEEKAQNDSEEEQVKGIPSFWLTALENLPIVCDTITDRDAEVLEYLQDIGLEYLTDGRPGFKLLFRFDSSANPFFTNDILCKTYFYQKELGYSGDFIYDHAEGCEISWKDNAHNVTVDLEMRKQRNKTTKQVRTIEKITPIESFFNFFDPPKIQNEDQDEELEEDLEERLALDYSIGEQLKDKLIPRAVDWFTGAALEFEFEEDEEEADEDEDEEEDDDHGLEDDDGESAEEQDDFAGRPEQAPECKQS"}, "B3": {"name": "H6-Srp1 (natural protein, yeast, UniProt Q02821 1-542, looked up)", "chain": "MDNGTDSSTSKFVPEYRRTNFKNKGRFSADELRRRRDTQQVELRKAKRDEALAKRRNFIPPTDGADSDEEDESSVSADQQFYSQLQQELPQMTQQLNSDDMQEQLSATVKFRQILSREHRPPIDVVIQAGVVPRLVEFMRENQPEMLQLEAAWALTNIASGTSAQTKVVVDADAVPLFIQLLYTGSVEVKEQAIWALGNVAGDSTDYRDYVLQCNAMEPILGLFNSNKPSLIRTATWTLSNLCRGKKPQPDWSVVSQALPTLAKLIYSMDTETLVDACWAISYLSDGPQEAIQAVIDVRIPKRLVELLSHESTLVQTPALRAVGNIVTGNDLQTQVVINAGVLPALRLLLSSPKENIKKEACWTISNITAGNTEQIQAVIDANLIPPLVKLLEVAEYKTKKEACWAISNASSGGLQRPDIIRYLVSQGCIKPLCDLLEIADNRIIEVTLDALENILKMGEADKEARGLNINENADFIEKAGGMEKIFNCQQNENDKIYEKAYKIIETYFGEEEDAVDETMAPQNAGNTFGFGSNVNQQFNFN"}}, "assay_in_all_cases": "pull-down", "key": {"[1]": {"molecular_target": "B2"}, "MBP-Kap114 [2]": {"molecular_target": "T1, MBP-Kap114 (yeast, UniProt P53067 1-1004)", "T1 sequence (looked up)": "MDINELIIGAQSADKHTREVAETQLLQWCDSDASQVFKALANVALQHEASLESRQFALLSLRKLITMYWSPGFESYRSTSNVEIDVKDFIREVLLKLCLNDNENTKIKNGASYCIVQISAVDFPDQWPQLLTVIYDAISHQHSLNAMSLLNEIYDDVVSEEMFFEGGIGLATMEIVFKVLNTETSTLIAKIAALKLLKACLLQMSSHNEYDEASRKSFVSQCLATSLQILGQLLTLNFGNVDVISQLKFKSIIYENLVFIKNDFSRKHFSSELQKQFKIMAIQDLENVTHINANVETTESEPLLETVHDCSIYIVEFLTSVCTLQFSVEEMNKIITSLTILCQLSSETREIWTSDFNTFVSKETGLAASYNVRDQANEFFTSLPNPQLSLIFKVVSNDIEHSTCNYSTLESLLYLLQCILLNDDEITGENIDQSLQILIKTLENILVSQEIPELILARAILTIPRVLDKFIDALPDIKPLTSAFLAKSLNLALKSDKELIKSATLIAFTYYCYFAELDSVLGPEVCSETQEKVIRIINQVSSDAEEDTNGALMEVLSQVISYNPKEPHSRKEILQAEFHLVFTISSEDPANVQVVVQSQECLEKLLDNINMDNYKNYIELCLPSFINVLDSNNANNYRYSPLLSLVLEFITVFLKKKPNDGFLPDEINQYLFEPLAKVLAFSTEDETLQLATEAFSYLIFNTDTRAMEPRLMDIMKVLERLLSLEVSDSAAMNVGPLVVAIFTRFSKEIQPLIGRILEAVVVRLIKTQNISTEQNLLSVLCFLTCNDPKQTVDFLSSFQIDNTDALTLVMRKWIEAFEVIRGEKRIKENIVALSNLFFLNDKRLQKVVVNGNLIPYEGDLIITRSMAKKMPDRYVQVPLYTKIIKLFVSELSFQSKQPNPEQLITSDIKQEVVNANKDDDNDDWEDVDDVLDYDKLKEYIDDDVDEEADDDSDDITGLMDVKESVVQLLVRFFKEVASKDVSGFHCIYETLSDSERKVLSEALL"}, "[3]": {"molecular_target": "T2, untagged recombinant Kap95 (yeast, UniProt Q06142 1-861)", "T2 sequence (looked up)": "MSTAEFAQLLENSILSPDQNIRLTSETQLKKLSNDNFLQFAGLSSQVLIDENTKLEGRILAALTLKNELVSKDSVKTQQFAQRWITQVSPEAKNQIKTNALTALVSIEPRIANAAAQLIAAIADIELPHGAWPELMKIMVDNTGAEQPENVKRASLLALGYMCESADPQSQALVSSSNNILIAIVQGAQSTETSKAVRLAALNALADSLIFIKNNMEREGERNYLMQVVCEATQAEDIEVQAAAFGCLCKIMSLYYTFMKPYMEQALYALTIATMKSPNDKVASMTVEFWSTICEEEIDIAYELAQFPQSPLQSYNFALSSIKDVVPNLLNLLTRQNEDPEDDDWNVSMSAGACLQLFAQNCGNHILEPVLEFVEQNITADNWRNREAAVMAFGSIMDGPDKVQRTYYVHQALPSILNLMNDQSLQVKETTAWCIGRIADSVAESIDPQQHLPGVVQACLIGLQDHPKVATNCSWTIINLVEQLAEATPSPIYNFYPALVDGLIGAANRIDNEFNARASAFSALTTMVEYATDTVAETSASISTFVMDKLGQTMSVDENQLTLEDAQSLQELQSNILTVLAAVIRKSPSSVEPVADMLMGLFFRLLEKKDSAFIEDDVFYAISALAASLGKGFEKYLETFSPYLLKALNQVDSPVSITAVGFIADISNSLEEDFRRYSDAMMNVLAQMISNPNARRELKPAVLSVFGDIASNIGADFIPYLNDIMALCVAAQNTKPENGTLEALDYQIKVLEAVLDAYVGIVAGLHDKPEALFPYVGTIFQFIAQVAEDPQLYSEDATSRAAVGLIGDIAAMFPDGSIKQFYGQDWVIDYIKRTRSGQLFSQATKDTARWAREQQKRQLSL"}, "MBP-Kap123": {"molecular_target": "T3, MBP-Kap123 (yeast, UniProt P40069 1-1113)", "T3 sequence (looked up)": "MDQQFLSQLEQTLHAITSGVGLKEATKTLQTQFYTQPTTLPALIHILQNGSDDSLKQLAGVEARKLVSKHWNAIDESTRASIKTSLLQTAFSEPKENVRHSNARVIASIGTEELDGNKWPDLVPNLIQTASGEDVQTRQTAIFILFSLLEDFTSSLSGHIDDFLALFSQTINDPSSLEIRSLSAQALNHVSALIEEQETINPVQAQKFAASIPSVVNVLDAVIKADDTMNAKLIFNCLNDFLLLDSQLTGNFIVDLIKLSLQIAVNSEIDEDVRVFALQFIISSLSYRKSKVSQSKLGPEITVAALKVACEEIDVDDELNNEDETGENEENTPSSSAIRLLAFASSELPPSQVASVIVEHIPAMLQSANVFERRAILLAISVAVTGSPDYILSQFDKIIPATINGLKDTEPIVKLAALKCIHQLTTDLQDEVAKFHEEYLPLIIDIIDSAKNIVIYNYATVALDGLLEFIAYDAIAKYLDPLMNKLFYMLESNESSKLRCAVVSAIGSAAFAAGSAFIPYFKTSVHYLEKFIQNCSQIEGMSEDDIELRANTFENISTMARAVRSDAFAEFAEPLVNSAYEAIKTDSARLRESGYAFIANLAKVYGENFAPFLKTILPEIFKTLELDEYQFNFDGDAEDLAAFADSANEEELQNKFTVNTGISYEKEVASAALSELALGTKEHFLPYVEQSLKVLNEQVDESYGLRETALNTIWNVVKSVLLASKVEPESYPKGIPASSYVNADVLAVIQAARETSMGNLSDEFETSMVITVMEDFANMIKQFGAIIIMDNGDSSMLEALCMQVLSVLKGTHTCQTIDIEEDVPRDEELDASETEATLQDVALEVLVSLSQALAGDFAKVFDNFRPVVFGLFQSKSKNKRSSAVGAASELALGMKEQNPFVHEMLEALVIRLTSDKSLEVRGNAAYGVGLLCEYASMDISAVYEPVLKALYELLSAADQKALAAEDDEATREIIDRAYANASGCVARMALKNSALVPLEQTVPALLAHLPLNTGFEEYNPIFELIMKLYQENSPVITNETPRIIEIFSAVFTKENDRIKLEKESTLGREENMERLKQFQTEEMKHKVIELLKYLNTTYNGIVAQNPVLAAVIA"}, "MBP-Kap114 [4]": {"molecular_target": "T1, MBP-Kap114", "remark": "listed apart in the source"}, "[5]": {"molecular_target": "T2, untagged recombinant Kap95", "remark": "listed apart in the source"}}, "note": "Like-named read-outs stand apart in the source and are kept apart here.", "data": [{"binder": "B1", "values": [{"measurement": "binding result", "setting": "[1]", "value": "binds"}, {"measurement": "binding result", "setting": "MBP-Kap114 [2]", "value": "binds"}, {"measurement": "binding result", "setting": "[3]", "value": "binds"}, {"measurement": "binding result", "setting": "MBP-Kap123", "value": "binds"}]}, {"binder": "B2", "values": [{"measurement": "binding result", "setting": "MBP-Kap114 [4]", "value": "binds"}]}, {"binder": "B3", "values": [{"measurement": "binding result", "setting": "[5]", "value": "binds"}]}]}
